Experimental data reported in the supplement of paper PMC10567573.
± gives the standard deviation.

Assay: protein stability index of a GFP-peptide fusion (GPS, HEK-293T) (PSI 1-6); higher = more stable
Settings: c terminus: a fixed tail appended
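Also: 24-mer peptide tiles fused after GFP, lentivirally expressed, FACS-sorted into six equal bins by GFP/DsRed ratio, decoded by Illumina sequencing, PSI is the read-weighted mean bin number.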

Sequence	protein stability index (treatment: DMSO)	protein stability index (treatment: MLN4924 1 uM, 8 h)
IDYKTTTILLDGQRVKLKLWDTSG [RAB40A]	2.27 ± 0.07	2.36 ± 0.2
IEADRRRAQLHVQGLLHEAGSTDD [SPNS1]	4.87 ± 0.18	5.1 ± 0.33
IFSIVFVFFVCFVPYHIARIPYTK [P2RY14]	3.1 ± 0.21	3 ± 0.49
IIDSSRSVNTHDYAKVKEFIVDIL [MATN2]	2.23 ± 0.2	2.37 ± 0.22
IIELLASDAGSPSLHKHLTIRLNI [PCDHGC5]	3.12 ± 0.48	3.15 ± 0.6
IISGVSKVPIAQDELALSLGYAAS [C2CD2L]	2.58 ± 0.3	2.55 ± 0.32
IKRAEDYGPVEVISHWHPNITINI [CLPTM1]	3.11 ± 0.39	2.68 ± 0.14
IKSSLKDEYQYSFWDLFRSKDNMR [SLC2A12]	2.39 ± 0.23	2.3 ± 0.21
ILFVNSEFETLYNEHKSCEEKSVK [CLK3]	2.74 ± 0.25	3.05 ± 0.3
ILIALVGATPSYHWDLAELLPNQS [SLC22A15]	2.85 ± 0.43	2.9 ± 0.75
ILVQTPESESPQSHRAAGSGVSDY [TRIM9]	4.49 ± 0.37	4.49 ± 0.21
INKIAGHPLAQNERCLHMFLQEEA [SNX12]	3.07 ± 0.12	3.3 ± 0.17
IPKSSDPEMRWNKGTILKASVDYI [TFE3]	2.79 ± 0.32	3.03 ± 0.26
IPPKEFHFRHPKRSVSLSMRKSGA [BNIP3L]	3.37 ± 0.34	3.77 ± 0.34
IRAAKGLDQALKEGGKLPPPPPPS [ZC2HC1A]	4.35 ± 0.24	4.48 ± 0.4
IRLVDDAFGKICHMVSDGSWVVRV [INTS4]	3.07 ± 0.46	2.98 ± 0.54
ISHQQCWASTSPGTDLPLSEIPRG [TRIM15]	3.51 ± 0.21	3.63 ± 0.53
ISLEERRAQLPKYQRNLPRPGQAP [ZNF207]	3.41 ± 0.12	3.67 ± 0.32
ISPGRVYEYTSCTTFSTTSGYMEG [FBXO3]	2.78 ± 0.22	2.69 ± 0.36
ITGAYDTIKHPGGAGAEESELQAY [MCOLN1]	4.84 ± 0.19	5.02 ± 0.19
ITRESHTHRDRPSQQQPLRNQVVS [CSNK1G1]	4.49 ± 0.21	4.37 ± 0.23
IVNSTEESDDAFDTVTIPVPSEEP [IQUB]	5.5 ± 0.25	5.55 ± 0.21

Sequence	protein stability index (treatment: DMSO)	protein stability index (treatment: MLN4924 1 uM, 8 h)
IYAYDAKIEIQTLTGLFKGDKCHS [CASP6]	2.14 ± 0.7	2.26 ± 0.23
IYTHFTCATDTKNVQFVFDAVTDV [GNAI1]	2.55 ± 0.46	3.28 ± 1.5
KANSPLKGHERTVQYLQHLGTENL [VPS39]	3.85 ± 0.3	3.71 ± 0.31
KAPDIECVLRCSVLEIEQSMNRVK [FEM1B]	2.3 ± 0.41	2.55 ± 0.51
KCFSCNSNLHRHQRTHTGEKPYKC [ZNF263]	3.5 ± 0.1	3.45 ± 0.15
KCGSGARGGDGEVASAPLQPPVPS [TRADD]	4.79 ± 0.24	4.78 ± 0.36
KDLVMYSKCQRLFRSPSMPCSVIR [CDC25B]	2.2 ± 0.18	2.73 ± 0.34
KDVLRYGEEQLKTHKKCKEEVVST [FCHO1]	4.85 ± 0.13	4.78 ± 0.19
KEAKTKYPNYEFISDNSISWSAGL [FUT8]	2.52 ± 0.25	2.95 ± 0.23
KEKEQENERKVAQLAEENERLKQE [DDIT3]	5.52 ± 0.1	5.55 ± 0.15
KENPECPVLKRSSESMENINSGYE [KMT2E]	5.13 ± 0.2	5.01 ± 0.23
KERKKREERERKRRKEEEVQQQKL [FAF2]	5.09 ± 0.46	4.91 ± 0.31
KESLETPSNGRIDIKQLIAKKIKL [SOAT1]	2.55 ± 0.14	2.94 ± 0.27
KFYPPDPAQLSEDITRYYLCLQLR [EPB41L3]	2.49 ± 0.048	2.48 ± 0.87
KIKAIMALVAAILLLVIIILIVMK [VAMP4]	2.47 ± 0.51	2.41 ± 0.8
KKAIKDLGISPSTCSFNPGVIVAN [GLT8D2]	2.95 ± 0.11	2.87 ± 0.43
KKEESGRERKKNWGGQEDREPAGR [PBXIP1]	5.16 ± 0.14	5.33 ± 0.26
KKKEGGALRAQRASSNVFSNFEQT [MYL5]	4.42 ± 0.45	4.47 ± 0.15
KKLKKDDKKKELQELNELFKPVVA [ZC3H15]	4.18 ± 0.48	4.15 ± 0.34
KKLRLVFKSLDKKNDGRIDAQEIM [SLC25A25]	2.57 ± 0.23	2.87 ± 0.31
KLDTKYPYVCHAELNAIMNKNSTD [DCTD]	3.52 ± 0.18	3.42 ± 0.11
KLNLCEDGPCHKRRASICCTQLGS [SCARA5]	3.12 ± 0.2	3.3 ± 0.27

Sequence	protein stability index (treatment: DMSO)	protein stability index (treatment: MLN4924 1 uM, 8 h)
KLPATMPEPVYFHCAAVTPAGCMY [KLHDC10]	2.27 ± 0.23	2.08 ± 0.19
KNGQGFALVYSITAQSTFNDLQDL [RAP1B]	2.23 ± 0.42	2.17 ± 0.45
KNNLSFIETSALDSTNVEEAFKNI [RAB11B]	4.33 ± 0.2	4.33 ± 0.3
KPKKKKEKKEKEKKKKDKEKEKEK [BRD3]	5.26 ± 0.097	5.19 ± 0.14
KQNARFLTSMRRLSSIKRDTNSIA [STX11]	3.12 ± 0.25	3.21 ± 0.2
KQNKTPLDKSTTGVSEILLKTQMK [FEM1B]	4.36 ± 0.15	4.2 ± 0.2
KQYKAVVYSNTIQSIIAIIRAMGR [GNAI1]	1.95 ± 0.32	2.21 ± 0.052
KREREKEDIALNKHRSRRKWCFWN [RHOBTB1]	2.65 ± 0.29	3.07 ± 0.51
KRKRVDVEESEASSSVSISHSASA [LMNB1]	5.29 ± 0.29	5.42 ± 0.17
KRSWTSAQNACSEHGATLAVIDSE [CD69]	4.64 ± 0.076	4.67 ± 0.17
KSHFQNSREWSGKEKWWDGQRDRK [PBXIP1]	3.67 ± 0.26	3.98 ± 0.31
KTIEDLRNKIIAATIENAQPILQI [KRT16]	2.36 ± 0.25	2.33 ± 0.1
KTLRVWDLKDDGNMMKVLRGHQNW [WSB1]	2.66 ± 0.4	2.4 ± 0.42
KTPLHQKHAAFVTPDQKYSMDNTP [MYBL2]	4.14 ± 0.38	4.23 ± 0.2
KVEEEIVTLRQVLAAKERHCGELK [TPD52L2]	3.95 ± 0.3	4.21 ± 0.14
KVKRSLRQARKKGRHLELANQKLS [CCDC3]	4 ± 0.26	4.39 ± 0.45
KVPESLVRSLRGEEPVPRERDRDP [LURAP1L]	5.28 ± 0.13	5.25 ± 0.33
KVTGYLISYSSMLGAVAGLALGPI [MFSD9]	3.31 ± 0.48	2.96 ± 0.28
KVVSRAENLSVPVIGALLRFNQAI [LPCAT4]	2.15 ± 0.54	2.18 ± 0.19
LAIQARKRRPKREKHPKKPEPQQK [SRPK2]	4.32 ± 0.2	4.59 ± 0.25
LALKTPPRVLTLSERPLDFLDLER [MFF]	2.96 ± 0.45	3.1 ± 0.21
